Assay results: patent publication US20240287196A1 (published 2024)
Positions count from the first letter of the chain named. Where two headings read alike, the source gives them in different places. One block for each binder: values may come before it.

Columns and labels:
[1] = target: T1, rat Alk7-Fc comprising protein (rat, UniProt P70539 26-113); assay: SPR (Biacore T100/T200); antibody captured on FAB chip, ALK7-Fc comprising protein as analyte; 1:1 model
T1 construct: not shown: Fc part and any linker
T1 sequence: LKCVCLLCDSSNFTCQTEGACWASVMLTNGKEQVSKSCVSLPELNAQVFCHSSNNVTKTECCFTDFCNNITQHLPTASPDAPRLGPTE
Description: (§1) Experiments were performed using a Biacore T100/T200 biosensor (Biacore/GE Healthcare) at 25 and 37° C. ALK7 antibodies were captured on custom made FAB chip. A concentration series of ALK7-Fc comprising protein was injected over the flow cells at a flow rate of […]. To obtain kinetic rate constants the corrected data were fit to a 1:1 interaction model using BiaEvaluation software (GE Healthcare). The equilibrium binding constant KD was determined by the ratio of binding rate constants kd/ka.

[2] = target: T2, human ALK7-Fc comprising protein (human, UniProt Q8NER5 22-113); assay: as above
T2 construct: also called hALK7-Fc; not shown: Fc part and any linker
T2 sequence: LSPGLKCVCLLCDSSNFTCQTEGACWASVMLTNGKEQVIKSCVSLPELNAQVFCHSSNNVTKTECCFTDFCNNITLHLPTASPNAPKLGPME
Description: as §1

[3] = target: T3, ALK7-Fc comprising protein (Homo sapiens (Human), UniProt Q8NER5 21-113); assay: SPR (Biacore T100/T200), 25 °C; antibody captured on FAB chip, ALK7-Fc comprising protein as analyte; 1:1 model
T3 construct: not shown: The Fc part and any linker of the fusion; The construct's exact ALK7 limits are not seen either
T3 sequence: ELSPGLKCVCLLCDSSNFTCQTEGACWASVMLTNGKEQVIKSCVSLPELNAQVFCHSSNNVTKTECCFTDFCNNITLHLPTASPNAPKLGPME
Description: as §1, with “comprisingprotein” for “comprising protein”, “kd/kₐ.” for “kd/ka.”

[4] = target: T4, ALK7 on differentiated 3T3-L1 adipocytes (UniProt Q8K348 26-493, limits assumed); assay: cell-based or functional assay
T4 sequence (looked up): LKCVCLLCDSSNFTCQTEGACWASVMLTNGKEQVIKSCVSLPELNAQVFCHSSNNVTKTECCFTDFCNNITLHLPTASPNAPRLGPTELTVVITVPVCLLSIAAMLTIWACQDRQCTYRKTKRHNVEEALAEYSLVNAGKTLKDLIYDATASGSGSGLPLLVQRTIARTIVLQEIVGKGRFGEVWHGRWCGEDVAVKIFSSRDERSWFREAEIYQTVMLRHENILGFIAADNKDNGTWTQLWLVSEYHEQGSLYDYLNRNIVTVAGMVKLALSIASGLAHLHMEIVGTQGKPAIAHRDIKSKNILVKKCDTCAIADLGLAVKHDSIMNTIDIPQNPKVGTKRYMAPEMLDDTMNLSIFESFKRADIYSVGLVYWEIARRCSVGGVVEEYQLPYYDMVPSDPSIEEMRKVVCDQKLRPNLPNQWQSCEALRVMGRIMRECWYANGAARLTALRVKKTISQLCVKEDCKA

[5] = target: T2, human ALK7-Fc comprising protein; assay: SPR (Biacore T100/T200); antibody captured on FAB chip, ALK7-Fc comprising protein as analyte; 1:1 model; remark: listed apart in the source

Kd [1]: 22.9 nM
koff [1]: 0.000271 s⁻¹
kon [1]: 11800 M⁻¹ s⁻¹
Kd [2]: 15.1 nM
kon [2]: 24300 M⁻¹ s⁻¹
B1: L01 (antibody, V domains shown)
VH: QVQLVQSGAEVKKPGSSVKVSCKASGGTFSSYAISWVRQAPGQGLEWMGSIIPIFGTANYAQKFQGRVTITADESTSTAYMELSSLRSEDTAVYYCARDPVGARYEVFDYWGQGTLVTVSS
VL: EIVMTQSPATLSVSPGERATLSCRASQSVSSNLAWYQQKPGQAPRLLIYSASTRATGIPARFSGSGSGTEFTLTISSLQSEDFAVYYCQQANTFPLTFGGGTKVEIK
notes: also called antibody L01

Kd [3]: 0.44 nM
koff [3]: 1.21e-05 s⁻¹
kon [3]: 27400 M⁻¹ s⁻¹
B2: L02 (antibody, V domains shown)
VH: QVQLVQSGAEVKKPGASVKVSCKASGYTFAGYNMHWVRQAPGQGLEWVGIINPNSGWTNYAQKFQGRVTMTRDTSVSAAYMELSRLRSDDTAVYYCARDPVGARYEVFDYWGQGTLVTVSS
VL: B1 VL with N32A, S52F, T56S, N92W, T93A
notes: also called mAb L02; antibody L02

Increase in lipolysis activity (%) [4]: 45.8%
Kd [5]: 247 nM
koff [5]: 0.0222 s⁻¹
kon [5]: 89600 M⁻¹ s⁻¹
B3: G04 (antibody, V domains shown)
VH: QVQLVQSGAEVKKPGSSVKVSCKASGGTFSSYAISWVRQAPGQGLEWMGGIIPIFGTASYAQKFQGRVTITADESTSTAYMELSSLRSEDTAVYYCARTPYYDSSGYLDVWGQGTMVTVSS
VL: DIQMTQSPSSLSASVGDRVTITCQASQDISNYLNWYQQKPGKAPKLLIYDASNLATGVPSRFSGSGSGTDFTFTISSLQPEDIATYYCQQSLDLPPTFGGGTKVEIK
notes: also called antibody G04

Kd [3]: 0.87 nM
koff [3]: 2.59e-05 s⁻¹
kon [3]: 29900 M⁻¹ s⁻¹
B4: G05 (antibody, human IgG1, kappa, V domains shown)
VH: B3 VH with S31G, Y32Q, I54S, S59R
VL: DIQMTQSPSSLSASVGDRVTITCQASHDIDNYLNWYQQKPGKAPKLLIYYASNLKTGVPSRFSGSGSGTDFTFTISSLQPEDIATYYCQQSRASPPTFGGGTKVEIKR
notes: also called mAb G05; antibody G05

Kd [3]: 0.33 nM
koff [3]: 1.27e-05 s⁻¹
kon [3]: 38300 M⁻¹ s⁻¹
B5: C03 (antibody, human IgG1, kappa, V domains shown)
VH: QLQLQESGPGLVKPSETLSLTCTVSGGSISSSAYYWAWIRQPPGKGLEWIGSIYLSGSTTYNPSLKSRVTISVDTSKNQFSLKLSSVTAADTAVYYCARDGRYQSRSPDYYYGMDVWGQGTTVTVSS
VL: EIVLTQSPGTLSLSPGERATLSCKASQSVSSSYLAWYQQKPGQAPRLLIYGAFSRANGIPDRFSGSGSGTDFTLTISRLEPEDFAVYYCQQLVSYPFTFGGGTKVEIKR
notes: also called mAb C03; antibody C03

Kd [1]: 8.14 nM
koff [1]: 0.000139 s⁻¹
kon [1]: 17100 M⁻¹ s⁻¹
Kd [2]: 201 nM
koff [2]: 0.00916 s⁻¹
kon [2]: 45600 M⁻¹ s⁻¹
B6: K01 (antibody, V domains shown)
VH: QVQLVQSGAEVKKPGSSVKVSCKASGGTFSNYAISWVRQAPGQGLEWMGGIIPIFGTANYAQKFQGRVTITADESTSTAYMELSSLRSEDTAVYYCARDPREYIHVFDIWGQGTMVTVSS
VL: DIQMTQSPSSLSASVGDRVTITCRASQSISSYLNWYQQKPGKAPKLLIYGASSLQSGVPSRFSGSGSGTDFTLTISSLQPEDFATYYCQQAYSFPWTFGGGIKVEIK
notes: also called antibody K01

Kd [3]: 5.33 nM
koff [3]: 0.000126 s⁻¹
kon [3]: 23600 M⁻¹ s⁻¹
B7: J02 (antibody, V domains shown)
VH: EVQLLESGGGLVQPGGSLRLSCAASGFTFSVYAMSWVRQAPGKGLEWVSAISGSGDSTVYADSVKGRFTISRDNSKNTLYLQMNSLRAEDTAVYYCAKPSYQPIYWGQGTLVTVSS
VL: B6 VL with L11V, S28G, Y32W, N34A, G50A, Y92A, F94Y, W96L, I102T
notes: also called mAb J02; antibody J02

Kd [3]: 12.4 nM
koff [3]: 0.000291 s⁻¹
kon [3]: 23500 M⁻¹ s⁻¹
B8: K02 (antibody, V domains shown)
VH: QVQLVQSGAEVKKPGSSVKVSCKASGGTFSSSAIGWVRQAPGQGLEWMGGIWPIFGTALYAQKFQGRVTITADESTSTAYMELSSLRSEDTAVYYCARDPREYIHVFDIWGQGTMVTVSS
VL: B6 VL
notes: also called mAb K02; antibody K02
